Measurements reported in article PMC5604497.

Target: leucine zipper domain of the transcription factor GCN4 from Saccharomyces cerevisiae (fusions with T18 and T25) (Saccharomyces cerevisiae)
Assay: two-hybrid; bacterial two-hybrid (BACTH), T18 and T25 fusions co-overexpressed in adenylate-cyclase-deficient E. coli BTH-101, LB pH 7, aerobic, OD600 ~0.6; ß-galactosidase activity (ONPG) in Miller units, three biological replicates; background with empty vectors about 400 MU

ß-galactosidase activity: 1200 MU
Substance: leucine zipper domain of the transcription factor GCN4 from Saccharomyces cerevisiae (fusions with T18 and T25) (domain or fragment)
